Our source for the Kd values is paper PMC6548965.

In this data set the target is AP heterodimer (IAP/PLAP) on LoVo cells (human) (UniProt P09923+P05187). Nature of the data set: flow cytometry. The conditions noted are these: 4 C, apparent Kd, PBS pH 7.4 (about 137 mM NaCl) with 5 mM MgCl2, 4.5 g/L glucose, 1 mg/mL BSA, 0.1 mg/mL herring sperm DNA, 30 min at 4 C.
Chain of AP heterodimer (IAP/PLAP) on LoVo cells (human) (P09923 20-503, chain 1 of 2): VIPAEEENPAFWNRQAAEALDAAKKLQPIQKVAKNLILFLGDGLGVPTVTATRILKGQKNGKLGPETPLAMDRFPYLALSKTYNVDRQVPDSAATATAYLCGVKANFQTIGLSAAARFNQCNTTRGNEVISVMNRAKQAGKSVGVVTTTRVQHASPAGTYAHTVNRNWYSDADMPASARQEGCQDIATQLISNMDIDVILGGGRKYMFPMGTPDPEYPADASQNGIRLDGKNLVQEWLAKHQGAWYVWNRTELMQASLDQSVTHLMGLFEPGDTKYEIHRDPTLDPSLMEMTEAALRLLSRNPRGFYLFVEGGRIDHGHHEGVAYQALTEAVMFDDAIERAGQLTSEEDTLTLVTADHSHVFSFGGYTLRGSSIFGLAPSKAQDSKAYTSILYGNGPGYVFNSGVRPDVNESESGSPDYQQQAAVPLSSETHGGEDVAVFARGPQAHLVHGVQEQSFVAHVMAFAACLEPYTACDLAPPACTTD
Chain of AP heterodimer (IAP/PLAP) on LoVo cells (human) (P05187 23-506, chain 2 of 2): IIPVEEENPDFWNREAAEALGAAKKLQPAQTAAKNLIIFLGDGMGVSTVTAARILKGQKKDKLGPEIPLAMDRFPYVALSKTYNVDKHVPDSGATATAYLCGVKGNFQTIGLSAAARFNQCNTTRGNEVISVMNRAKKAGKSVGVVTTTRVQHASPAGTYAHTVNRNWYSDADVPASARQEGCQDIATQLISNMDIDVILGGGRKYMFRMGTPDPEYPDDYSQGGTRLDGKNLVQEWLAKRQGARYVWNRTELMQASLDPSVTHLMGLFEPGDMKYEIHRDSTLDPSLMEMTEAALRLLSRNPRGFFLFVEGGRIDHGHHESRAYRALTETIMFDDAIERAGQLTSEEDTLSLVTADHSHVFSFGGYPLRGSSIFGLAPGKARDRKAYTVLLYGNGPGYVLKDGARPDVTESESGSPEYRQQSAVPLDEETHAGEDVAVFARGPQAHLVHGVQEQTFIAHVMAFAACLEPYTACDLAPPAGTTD

Turning to “CAAGGAATAGGGGTCGGTGTGGGTGGTTATGATTGGCTTCCTTG [BG2]”, the Kd was determined as 2.5 nM.
Regarding “TAAAAAATAGGGGTCGGTGTGGGTGGTTATGATTGGCTTTTTTA [BG4]”, the Kd was 11.5 nM.
TAGGGGTCGGTGTGGGTGGTTATGATTGGC [BG2c]: the Kd turned out to be 9.3 nM.
